# Reference: patent publication US8440628B2, “Medical compositions containing ghrelin” (Daiichi Sankyo Company, Limited, priority 2002, dated 2013)
# How the values were obtained:
# Assay type in all cases: physicochemical
# [1] = Stability of human ghrelin in 0.1M HCl and Mcllvain buffer solutions of various pH at 25°C (Example 2, HPLC peak area ratio)
# Protocol: Human ghrelin was dissolved in the following aqueous solutions in the concentration of about 0.15 μmol/mL (0.5 mg/mL).
# 0.1M HCl aqueous solution (pH: 1.1)
# The pH was adjusted with 0.1M citric aqueous acid and 0.2M dibasic sodium phosphate aqueous solution.
# Each solution were stored at 25±2° C. for 8, 24, 48 and 72 hours respectively, and the obtained solutions were detected by HPLC analysis in comparison to the solutions before storage. […] No significant changes of pH in solution before storage and after storage were observed.
# [2] = Stability of human ghrelin in Britton-Robinson buffer solutions of various pH at 40°C (Example 3); conditions: pH range of 3 to 6, stored at 40° C. for 1 day (FIG. 3)
# Protocol: Human ghrelin, which is one of the ghrelins, was dissolved in the Britton-Robinson buffer solutions which is adjusted by combining 0.04M phosphoric acid-acetic acid-boric acid aqueous solution and 0.2M sodium hydrate aqueous solution in appropriate ratio, having pH of 2.1, 3.1, 4.0, 5.0, 6.0, 7.0 and 7.9 to obtain an aqueous solution containing human ghrelin in the concentration of about 0.15 μmol/mL (0.5 mg/mL). The obtained solution was filled in brownish glass ampoules and the ampoules were sealed with fire. For the calculation of kinetic constant, the certain degrees of degradation products have to be occurred in the aqueous solution of the ghrelins, and therefore, the ampoules were stored at 40±1° C., which was severe conditions for storage. The concentration (residual ratio) of human ghrelin was conducted by HPLC with time. At the same time, the pH of the solution was measured and it was confirmed that there was no significant changes of pH in solution.
# The kinetic constants in each pH solution were calculated from the sequential change of the residual ratio, and the results were shown in FIG. 2.
# [3] = Stability of human ghrelin in pH-adjusted purified water at 25°C (Example 7); conditions: for Peak area ratio to total peak area: 25±2°C
# Protocol: Human ghrelin was dissolved in the purified water with about 0.03 μmol/mL (0.1 mg/mL). […] This solution was divided into quarter, and one portion was kept alone and the pH values of the remaining three portions were adjusted to pH 1.8 (with 17 mM of hydrochloric acid), pH 3.9 (with 0.20 mM of hydrochloric acid) and pH 7.8 (with 0.24 mM of sodium hydroxide) respectively, by adding along with hydrochloric acid or sodium hydroxide aqueous solution.
substance,measurement,setting,value
"desacylated human ghrelin (GSSFLSPEHQRVQQRKESKKPPAKLQPR; Ghrelin-28 desacyl; UniProt Q9UBU3 24-51, looked up) [Desacyl compound, degradation product obtained from the hydrolytic cleavage of octanoyl group of human ghrelin]",Production of the degradation product in human ghrelin solution,"[1]; Mcllvain buffer, pH range of 3.0 to 5.0, 25±2°C, up to 72 hours",inhibited
same,Peak area ratio to total peak area,"[1]; human ghrelin 0.5 mg/mL in 0.1M HCl aqueous solution, pH 1, 25±2°C, 8 hr. after",4.88%
same,Peak area ratio to total peak area,"[1]; human ghrelin 0.5 mg/mL in 0.1M HCl aqueous solution, pH 1, 25±2°C, 8 hr. after, listed as desacyl compound",more than 3%
same,Peak area ratio to total peak area,"[1]; human ghrelin 0.5 mg/mL in 0.1M HCl aqueous solution, pH 1, 25±2°C, 24 hr. after",13.31%
same,Peak area ratio to total peak area,"[1]; human ghrelin 0.5 mg/mL in 0.1M HCl aqueous solution, pH 1, 25±2°C, 48 hr. after",24.63%
same,Peak area ratio to total peak area,"[1]; human ghrelin 0.5 mg/mL in 0.1M HCl aqueous solution, pH 1, 25±2°C, 72 hr. after",34.17%
same,Peak area ratio to total peak area,"[1]; human ghrelin 0.5 mg/mL in 0.1M HCl aqueous solution, pH 1, 25±2°C, before storage",0.27%
same,Peak area ratio to total peak area,"[1]; human ghrelin 0.5 mg/mL in Mcllvain buffer, pH 2, 25±2°C, 8 hr. after",0.34%
same,Peak area ratio to total peak area,"[1]; human ghrelin 0.5 mg/mL in Mcllvain buffer, pH 2, 25±2°C, 24 hr. after",0.89%
same,Peak area ratio to total peak area,"[1]; human ghrelin 0.5 mg/mL in Mcllvain buffer, pH 2, 25±2°C, 48 hr. after",1.76%
same,Peak area ratio to total peak area,"[1]; human ghrelin 0.5 mg/mL in Mcllvain buffer, pH 2, 25±2°C, 48 hr. after, listed as desacyl compound",more than 1%
same,Peak area ratio to total peak area,"[1]; human ghrelin 0.5 mg/mL in Mcllvain buffer, pH 2, 25±2°C, 72 hr. after",2.59%
same,Peak area ratio to total peak area,"[1]; human ghrelin 0.5 mg/mL in Mcllvain buffer, pH 2, 25±2°C, before storage",0.10%
same,Peak area ratio to total peak area,"[1]; human ghrelin 0.5 mg/mL in Mcllvain buffer, pH 3, 25±2°C, 8 hr. after",0.20%
same,Peak area ratio to total peak area,"[1]; human ghrelin 0.5 mg/mL in Mcllvain buffer, pH 3, 25±2°C, 24 hr. after",0.38%
same,Peak area ratio to total peak area,"[1]; human ghrelin 0.5 mg/mL in Mcllvain buffer, pH 3, 25±2°C, 48 hr. after",0.67%
same,Peak area ratio to total peak area,"[1]; human ghrelin 0.5 mg/mL in Mcllvain buffer, pH 3, 25±2°C, 72 hr. after",0.98%
same,Peak area ratio to total peak area,"[1]; human ghrelin 0.5 mg/mL in Mcllvain buffer, pH 3, 25±2°C, before storage",0.10%
same,Peak area ratio to total peak area,"[1]; human ghrelin 0.5 mg/mL in Mcllvain buffer, pH 4, 25±2°C, 8 hr. after",0.12%
same,Peak area ratio to total peak area,"[1]; human ghrelin 0.5 mg/mL in Mcllvain buffer, pH 4, 25±2°C, 24 hr. after",0.21%
same,Peak area ratio to total peak area,"[1]; human ghrelin 0.5 mg/mL in Mcllvain buffer, pH 4, 25±2°C, 48 hr. after",0.37%
same,Peak area ratio to total peak area,"[1]; human ghrelin 0.5 mg/mL in Mcllvain buffer, pH 4, 25±2°C, 72 hr. after",0.51%
same,Peak area ratio to total peak area,"[1]; human ghrelin 0.5 mg/mL in Mcllvain buffer, pH 4, 25±2°C, before storage",0.09%
same,Peak area ratio to total peak area,"[1]; human ghrelin 0.5 mg/mL in Mcllvain buffer, pH 5, 25±2°C, 8 hr. after",0.14%
same,Peak area ratio to total peak area,"[1]; human ghrelin 0.5 mg/mL in Mcllvain buffer, pH 5, 25±2°C, 24 hr. after",0.24%
same,Peak area ratio to total peak area,"[1]; human ghrelin 0.5 mg/mL in Mcllvain buffer, pH 5, 25±2°C, 48 hr. after",0.45%
same,Peak area ratio to total peak area,"[1]; human ghrelin 0.5 mg/mL in Mcllvain buffer, pH 5, 25±2°C, 72 hr. after",0.61%
same,Peak area ratio to total peak area,"[1]; human ghrelin 0.5 mg/mL in Mcllvain buffer, pH 5, 25±2°C, before storage",0.10%
same,Peak area ratio to total peak area,"[1]; human ghrelin 0.5 mg/mL in Mcllvain buffer, pH 6, 25±2°C, 8 hr. after",0.28%
same,Peak area ratio to total peak area,"[1]; human ghrelin 0.5 mg/mL in Mcllvain buffer, pH 6, 25±2°C, 24 hr. after",0.70%
same,Peak area ratio to total peak area,"[1]; human ghrelin 0.5 mg/mL in Mcllvain buffer, pH 6, 25±2°C, 48 hr. after",1.33%
same,Peak area ratio to total peak area,"[1]; human ghrelin 0.5 mg/mL in Mcllvain buffer, pH 6, 25±2°C, 48 hr. after, listed as desacyl compound",more than 1%
same,Peak area ratio to total peak area,"[1]; human ghrelin 0.5 mg/mL in Mcllvain buffer, pH 6, 25±2°C, 72 hr. after",1.97%
same,Peak area ratio to total peak area,"[1]; human ghrelin 0.5 mg/mL in Mcllvain buffer, pH 6, 25±2°C, before storage",0.10%
same,Peak area ratio to total peak area,"[1]; human ghrelin 0.5 mg/mL in Mcllvain buffer, pH 7, 25±2°C, 8 hr. after",0.92%
same,Peak area ratio to total peak area,"[1]; human ghrelin 0.5 mg/mL in Mcllvain buffer, pH 7, 25±2°C, 24 hr. after",2.70%
same,Peak area ratio to total peak area,"[1]; human ghrelin 0.5 mg/mL in Mcllvain buffer, pH 7, 25±2°C, 24 hr. after, listed as desacyl compound",more than 1%
same,Peak area ratio to total peak area,"[1]; human ghrelin 0.5 mg/mL in Mcllvain buffer, pH 7, 25±2°C, 48 hr. after",5.22%
same,Peak area ratio to total peak area,"[1]; human ghrelin 0.5 mg/mL in Mcllvain buffer, pH 7, 25±2°C, 72 hr. after",7.67%
same,Peak area ratio to total peak area,"[1]; human ghrelin 0.5 mg/mL in Mcllvain buffer, pH 7, 25±2°C, before storage",0.16%
same,Peak area ratio to total peak area,"[1]; human ghrelin 0.5 mg/mL in Mcllvain buffer, pH 8, 25±2°C, 8 hr. after",3.92%
same,Peak area ratio to total peak area,"[1]; human ghrelin 0.5 mg/mL in Mcllvain buffer, pH 8, 25±2°C, 8 hr. after, listed as desacyl compound",more than 3%
same,Peak area ratio to total peak area,"[1]; human ghrelin 0.5 mg/mL in Mcllvain buffer, pH 8, 25±2°C, 24 hr. after",10.57%
same,Peak area ratio to total peak area,"[1]; human ghrelin 0.5 mg/mL in Mcllvain buffer, pH 8, 25±2°C, 48 hr. after",19.54%
same,Peak area ratio to total peak area,"[1]; human ghrelin 0.5 mg/mL in Mcllvain buffer, pH 8, 25±2°C, 72 hr. after",27.26%
same,Peak area ratio to total peak area,"[1]; human ghrelin 0.5 mg/mL in Mcllvain buffer, pH 8, 25±2°C, before storage",0.47%
same,Production of the degradation product in human ghrelin solution,[2],inhibited
same,Production of the degradation product in human ghrelin solution,"[3]; aqueous solution of pH 3.9 and 4.7, 25±2°C, up to 3 days",inhibited
same,Peak area ratio to total peak area,"[3]; human ghrelin 0.1 mg/mL in purified water adjusted to pH 1.8 with hydrochloric acid, 1 day after",1.46%
same,Peak area ratio to total peak area,"[3]; human ghrelin 0.1 mg/mL in purified water adjusted to pH 1.8 with hydrochloric acid, before storage",0.12%
same,Peak area ratio to total peak area,"[3]; human ghrelin 0.1 mg/mL in purified water adjusted to pH 3.9 with hydrochloric acid, 1 day after",0.09%
same,Peak area ratio to total peak area,"[3]; human ghrelin 0.1 mg/mL in purified water adjusted to pH 3.9 with hydrochloric acid, 3 days after",0.14%
same,Peak area ratio to total peak area,"[3]; human ghrelin 0.1 mg/mL in purified water adjusted to pH 3.9 with hydrochloric acid, before storage",0.07%
same,Peak area ratio to total peak area,"[3]; human ghrelin 0.1 mg/mL in purified water adjusted to pH 7.8 with sodium hydroxide, 1 day after",3.65%
same,Peak area ratio to total peak area,"[3]; human ghrelin 0.1 mg/mL in purified water adjusted to pH 7.8 with sodium hydroxide, 3 days after",9.84%
same,Peak area ratio to total peak area,"[3]; human ghrelin 0.1 mg/mL in purified water adjusted to pH 7.8 with sodium hydroxide, before storage",0.33%
same,Peak area ratio to total peak area,"[3]; human ghrelin 0.1 mg/mL in purified water, pH 4.7 (not adjusted), 1 day after",0.15%
same,Peak area ratio to total peak area,"[3]; human ghrelin 0.1 mg/mL in purified water, pH 4.7 (not adjusted), 3 days after",0.28%
same,Peak area ratio to total peak area,"[3]; human ghrelin 0.1 mg/mL in purified water, pH 4.7 (not adjusted), before storage",0.06%
